Assay results published in PMC7472852, “The Phosphatase PP2A Interacts With ArnA and ArnB to Regulate the Oligomeric State and the Stability of the ArnA/B Complex” (Frontiers in Microbiology, 2020).

B1: C-terminally His-tagged ArnB (natural protein, S. acidocaldarius, UniProt Q4J9H3 1-380, looked up)
chain: MTISVKAELSHKYSFTSPLKGVFRLIIVPEKVSTARGFHYIILLDTSGSMYGVKIETAKQGAMELLSRIPEGNKISFLTFSNNVNILSEYADAPSLVQQIKQIRSGGQTVLYRALERAIEIAKKHDLPGYIILLTDGQPTDVPETDAYEKLNYPEAYKVIAFGIGDDYNERLLKVITDKTAGILYHVEDAKEIAEMLPQSAVTEIGAKNVSIDIVSETQVKLLNYPGPPVKLGAVESVVRVYGEIIIPPNFTGRLATVKISYEDPLSSRINRLEVNFDITRANDVKRFLDGINNDLVNEYRYYELMSKLANQLNSNNLSEATRTVEQMQMIAQQTRRMELIETTRRISESIETTRRIGTVEQTRKISKEITSEVTKKLRS
notes: ArnB of Sulfolobus acidocaldarius; printed molecular mass of ArnB-His 43.6 kDa; also called ArnB-His; source: E. coli Rosetta (DE3)/pLysS, purified (heat step, Ni-NTA, SEC); not shown: His, C-terminal, kept
B2: phosphorylated ArnA/B complex (complex, S. acidocaldarius)
chain 1: MTWKCNLCGYENDDDALFCIKCGAQKSSEAQQLPQQQPSEPQAQGVVTQQQVVTNPPVQAQVATPQQPAQQPVLPQPEPAQPQPVSSTPAPQQASQPTNRYYIYFIQTPNENLVNKKVLLNFDLFPSVSMGRSPENIVIVPDSEVSRKHAVIYLDNSELYIEDLNSTNGTYVYDGKQFTPIKGKQKIEPNSIIKLGNQTIVRILKE
chain 2: B1 chain
modifications: phosphorylated in vitro by the kinase ArnC (sites not given) | phosphorylated in vitro by the kinase ArnC (sites not given)
notes: ArnA of Sulfolobus acidocaldarius; ArnB of Sulfolobus acidocaldarius; Same tag uncertainty as m13; ArnB is the chain that is mainly phosphorylated in the complex; also called phosphorylated oligomeric ArnA/B complex; (ArnA/B)2; source: reconstituted ArnA/B complex (E. coli proteins, SEC-isolated) incubated with ArnC, ATP and Mn2+ at 55°C for 30 min
B3: N-terminally Strep-tagged ArnA (natural protein, S. acidocaldarius, UniProt Q4J9H4 1-206, looked up)
chain: B2 chain 1
notes: ArnA of Sulfolobus acidocaldarius; printed molecular mass of Strep-ArnA 26.8 kDa; also called Strep-ArnA; source: E. coli Rosetta (DE3)/pLysS, purified (heat step, streptavidin beads, SEC); not shown: Strep II, N-terminal, kept

How the values were obtained:
[1] = target: His-tagged ArnA (S. acidocaldarius); experiment: mass photometry; Refeyn OneMP, 20-100 nM protein in 50 mM Tris pH 8.0, 150 mM NaCl; SEC fractions of ArnA, ArnB, ArnA/B complex and phosphorylated ArnA/B complex
[2] = target: B3; experiment: SEC; Superdex 200 (16/600), 50 mM Tris pH 8, 150 mM NaCl; equal amounts of ArnA and ArnB mixed and kept on ice for 1 h; fractions on SDS-PAGE; stoichiometry concluded from SEC and mass photometry together; conditions: both partners purified
[3] = target: the molecule itself; experiment: mass photometry; Refeyn OneMP, 20-100 nM protein in 50 mM Tris pH 8.0, 150 mM NaCl; SEC fractions of ArnA, ArnB, ArnA/B complex and phosphorylated ArnA/B complex
[4] = target: the molecule itself; experiment: SEC; Superdex 200 (16/600), 50 mM Tris pH 8, 150 mM NaCl; equal amounts of ArnA and ArnB mixed and kept on ice for 1 h; fractions on SDS-PAGE; stoichiometry concluded from SEC and mass photometry together

## His-tagged ArnA (natural protein)
[1]
  stoichiometry N: 2

## B1
[2]
  stoichiometry N: 1
[1]
  stoichiometry N: 1

## B2
[3]
  stoichiometry N: 2 ArnA/B heterodimers per complex

## B3
[4]
  stoichiometry N: 2
